Measurements from US20220401482A1, “GENERATION OF CD38 KNOCK-OUT PRIMARY AND EXPANDED HUMAN NK CELLS” (RESEARCH INSTITUTE AT NATIONWIDE CHILDREN'S HOSPITAL, priority 2019, published 2022).

Target: CD38 (cluster of differentiation 38) on human NK cells and multiple myeloma cells (human) (UniProt P28907)
Experiment: cell-based or functional assay

Substance: daratumumab (antibody)
- sensitivity to daratumumab-mediated fratricide, unmodified control (CD38-expressing) NK cells: 77%
